The target of one experiment is GST-CDK4 (UniProt P11802). As to the kind of experiment: MST; microscale thermophoresis of MBP-P16p and MBP-cycP16p with GST-CDK4; three replicate measurements. For orientation: In MST a laser heats a spot of the sample, and binding alters the fluorescence response.
In experiment [1] the target is CDK4 from MCF-7 cell lysate (human (endogenous in MCF-7)) (UniProt P11802).
For experiment [2] the target is unchanged. The source holds these as a separate data set.

What is called Kd is the concentration at which binding is half-saturated. Substance “MBP-P16p (linear counterpart of MBP-cycP16p) (from UniProt P42771 83-103) (peptide)” showed a Kd with GST-CDK4 of 117 nM.

“bicyclic cycRGD-mCh-cycP16p (from UniProt P42771 83-103)” yielded a G0/G1 cell cycle arrest of MCF-7 cells treated for 24 h with different concentrations, flow cytometry; value at 15 μM in experiment [1] of 76.7%. Also, in experiment [2], the G0/G1 cell cycle arrest of MCF-7 cells, time course up to 72 h in serum-supplemented medium came out at 88%.

On to “cyclized MBP-P16p protein (MBP-cycP16p) (from UniProt P42771 83-103) (peptide)”, for which the Kd with GST-CDK4 amounted to 27.7 nM.
